Data published in PMC4158885 (The EMBO Journal, 2014).

Columns and labels:
[1] = molecular target: ctPan2 PID (Pan3 interaction domain) as used for surface plasmon resonance and isothermal titration calorimetry (Chaetomium thermophilum); assay: SPR; ctPan3 PKC with ctPan2 PID; who was immobilised is not shown (Supplementary Fig S7A–C)
[2] = molecular target: ctPan2 PID (Pan3 interaction domain) as used for surface plasmon resonance and isothermal titration calorimetry (Chaetomium thermophilum); assay: ITC; ctPan3 PKC with ctPan2 PID; low protein concentrations, which limits the accuracy of the Kd
scPan3 zinc finger [3] = molecular target: T1, scPan3 zinc finger (Saccharomyces cerevisiae, UniProt P36102 1-41); assay: NMR chemical shift perturbation; Zn2+; negligible changes; FP: 10 mM Tris pH 8.0, 50 mM NaCl, 1 mM MgCl2, 5 mM beta-mercaptoethanol, 20 nM RNA, temperature not stated; EMSA: deadenylation assay buffer (composition not in material), 0.1-3 uM complex, 40 ng RNA in 10 ul, 15 min RT; NMR: 150 uM protein, 150 uM RNA (HSQC); conditions: protein: recombinant; tags: lipoyl domain/His fusion removed by TEV
T1 chain: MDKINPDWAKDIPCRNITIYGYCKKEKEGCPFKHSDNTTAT

ctPan3 PKC [4] = molecular target: T2, ctPan3 PKC (Chaetomium thermophilum, UniProt G0S0Y3 205-640); assay: fluorescence polarization; 1 mM Mg2+; FP: 10 mM Tris pH 8.0, 50 mM NaCl, 1 mM MgCl2, 5 mM beta-mercaptoethanol, 20 nM RNA, temperature not stated; EMSA: deadenylation assay buffer (composition not in material), 0.1-3 uM complex, 40 ng RNA in 10 ul, 15 min RT; NMR: 150 uM protein, 150 uM RNA (HSQC); conditions: protein: recombinant; tags: GST-TEV construct (pGEX-TEV); chain copies: 2; label: 5' Cy3
T2 sequence: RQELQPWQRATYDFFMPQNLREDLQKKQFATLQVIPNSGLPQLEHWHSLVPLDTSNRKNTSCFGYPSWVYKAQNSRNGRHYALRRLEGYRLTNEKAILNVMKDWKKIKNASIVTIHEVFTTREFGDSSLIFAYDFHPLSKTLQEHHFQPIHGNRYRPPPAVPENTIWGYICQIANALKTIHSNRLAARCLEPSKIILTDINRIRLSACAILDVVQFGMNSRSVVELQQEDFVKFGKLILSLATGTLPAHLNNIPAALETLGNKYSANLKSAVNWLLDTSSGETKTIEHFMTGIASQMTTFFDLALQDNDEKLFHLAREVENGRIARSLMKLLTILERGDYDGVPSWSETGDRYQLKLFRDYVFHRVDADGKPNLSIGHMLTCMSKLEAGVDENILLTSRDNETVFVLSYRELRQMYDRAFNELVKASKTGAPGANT

ctPan3 PKC [5] = molecular target: T2, ctPan3 PKC; assay: fluorescence polarization; 1 mM Mg2+; possible G-quadruplex complicates interpretation; FP: 10 mM Tris pH 8.0, 50 mM NaCl, 1 mM MgCl2, 5 mM beta-mercaptoethanol, 20 nM RNA, temperature not stated; EMSA: deadenylation assay buffer (composition not in material), 0.1-3 uM complex, 40 ng RNA in 10 ul, 15 min RT; NMR: 150 uM protein, 150 uM RNA (HSQC); conditions: protein: recombinant, tags: GST-TEV construct (pGEX-TEV), chain copies: 2, label: 5' Cy3
scPan3 zinc finger [6] = molecular target: T1, scPan3 zinc finger; assay: NMR titration; Zn2+; apparent Kd per residue: 62 ± 4, 93 ± 11, 100 ± 13 (peaks of Trp8, Ala9, Asn16); FP: 10 mM Tris pH 8.0, 50 mM NaCl, 1 mM MgCl2, 5 mM beta-mercaptoethanol, 20 nM RNA, temperature not stated; EMSA: deadenylation assay buffer (composition not in material), 0.1-3 uM complex, 40 ng RNA in 10 ul, 15 min RT; NMR: 150 uM protein, 150 uM RNA (HSQC); conditions: protein: recombinant; tags: lipoyl domain/His fusion removed by TEV
ctPan2 E899A;ctPan3 PKC = ctPan2 E899A;ctPan3 PKC (Chaetomium thermophilum;Chaetomium …, UniProt G0SAK8;G0S0Y3 1-1170;205-640, E899A|); assay: fluorescence polarization; 1 mM Mg2+; FP: 10 mM Tris pH 8.0, 50 mM NaCl, 1 mM MgCl2, 5 mM beta-mercaptoethanol, 20 nM RNA, temperature not stated; EMSA: deadenylation assay buffer (composition not in material), 0.1-3 uM complex, 40 ng RNA in 10 ul, 15 min RT; NMR: 150 uM protein, 150 uM RNA (HSQC); conditions: protein: recombinant;recombinant; tags: Strep-II, His;GST-TEV construct (pGEX-TEV); copies: 1;2; label: 5' Cy3
[7] = molecular target: T3, Saccharomyces cerevisiae Pan2 (scPan2), full length, of the recombinant scPan2–Pan3 complex (Saccharomyces cerevisiae, UniProt P53010 1-1115); assay: native MS; nanoESI-MS of the purified recombinant scPan2–Pan3 complex (5.5 mg/ml), buffer-exchanged into 200 mM ammonium acetate pH 8.0; conditions: both partners purified
T3 construct: Pan2, Saccharomyces cerevisiae
T3 sequence (looked up): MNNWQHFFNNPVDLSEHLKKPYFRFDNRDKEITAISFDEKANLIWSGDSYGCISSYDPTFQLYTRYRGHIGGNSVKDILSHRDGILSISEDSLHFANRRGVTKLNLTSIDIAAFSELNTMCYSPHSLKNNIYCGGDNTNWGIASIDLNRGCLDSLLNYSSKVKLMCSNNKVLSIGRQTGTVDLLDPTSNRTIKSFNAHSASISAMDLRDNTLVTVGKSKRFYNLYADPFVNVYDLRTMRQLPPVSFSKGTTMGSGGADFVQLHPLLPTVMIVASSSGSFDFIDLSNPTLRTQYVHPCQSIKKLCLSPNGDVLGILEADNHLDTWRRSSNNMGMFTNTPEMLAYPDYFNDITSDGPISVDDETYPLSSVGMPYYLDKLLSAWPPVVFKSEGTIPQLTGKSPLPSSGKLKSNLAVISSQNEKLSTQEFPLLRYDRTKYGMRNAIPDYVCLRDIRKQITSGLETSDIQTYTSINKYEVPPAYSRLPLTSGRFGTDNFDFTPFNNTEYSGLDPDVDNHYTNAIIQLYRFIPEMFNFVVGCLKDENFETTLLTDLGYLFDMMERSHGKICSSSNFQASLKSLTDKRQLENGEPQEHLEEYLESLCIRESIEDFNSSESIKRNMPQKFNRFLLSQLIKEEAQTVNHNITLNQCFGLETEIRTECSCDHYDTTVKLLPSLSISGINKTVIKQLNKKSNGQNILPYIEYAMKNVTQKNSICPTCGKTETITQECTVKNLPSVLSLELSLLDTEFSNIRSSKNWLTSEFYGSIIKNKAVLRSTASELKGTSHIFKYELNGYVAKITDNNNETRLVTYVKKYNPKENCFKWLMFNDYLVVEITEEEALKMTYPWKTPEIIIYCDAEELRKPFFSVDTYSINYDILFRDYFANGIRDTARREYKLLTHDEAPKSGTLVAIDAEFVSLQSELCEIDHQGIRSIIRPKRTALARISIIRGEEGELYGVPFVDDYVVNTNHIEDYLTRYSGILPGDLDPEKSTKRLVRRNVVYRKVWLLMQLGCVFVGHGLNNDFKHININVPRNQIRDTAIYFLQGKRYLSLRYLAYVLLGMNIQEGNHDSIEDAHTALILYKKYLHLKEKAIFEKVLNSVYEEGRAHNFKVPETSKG

[8] = molecular target: the molecule itself; assay: as above

Work on “ctPan3 pseudokinase/C-terminal domain (PKC, residues 205–640), purified from E. coli (from UniProt G0S0Y3 205-640) (domain or fragment)” yielded a Kd [1] of 10 nM, a Kd [2] of 50 nM and a dH [2] of -30 kcal/mol. For the same molecule, the stoichiometry N (Pan2 chain per Pan3 dimer) [2] was 1.

B1: C15 RNA (NMR) (ssRNA)
RNA: CCCCCCCCCCCCCCC
B1: no binding (scPan3 zinc finger [3]).

B2: Cy3-C15 RNA (ssRNA)
RNA: CCCCCCCCCCCCCCC
With B2 the Kd (ctPan3 PKC [4]) was 2200 ± 1700 nM.

B3: Cy3-G15 RNA (ssRNA)
RNA: GGGGGGGGGGGGGGG
For B3, the Kd (ctPan3 PKC [5]) was 550 ± 50 nM.

B4: Cy3-U15 RNA (ssRNA)
RNA: UUUUUUUUUUUUUUU
B4 gave a Kd (ctPan3 PKC [4]) of 1600 ± 600 nM.

B5: Cy3-A15 RNA (ssRNA)
RNA: AAAAAAAAAAAAAAA
Work on B5 yielded a Kd (ctPan3 PKC [4]) of 2100 ± 1400 nM.

B6: U15 RNA (NMR) (ssRNA)
RNA: UUUUUUUUUUUUUUU
B6: no binding (scPan3 zinc finger [3]).

B7: polyA15 RNA (NMR) (ssRNA)
RNA: AAAAAAAAAAAAAAA
For B7, the Kd (scPan3 zinc finger [6]) was about 77500 nM.

B8: Cy3-A25 RNA (ssRNA)
RNA: AAAAAAAAAAAAAAAAAAAAAAAAA
With B8 the Kd (ctPan3 PKC [4]) was 620 ± 60 nM and the Kd (ctPan2 E899A;ctPan3 PKC) was 270 ± 20 nM.

B9: Saccharomyces cerevisiae Pan3 (scPan3), full length, of the recombinant scPan2–Pan3 complex (natural protein, UniProt P36102 1-679, looked up)
chain: MDKINPDWAKDIPCRNITIYGYCKKEKEGCPFKHSDNTTATTINDVPPPIDVGEATTPTMTSVPKFNAKVSASFTPMTVGSDSLTTVTNTTSAATNATGNIAMAATSATASTVNPMINPIVNSSLVNNNNNNSNISISIPTTASSSNYDPFNAPIFTPSSTSSIHTNANAHSFPFPSIANSGGININATDDNSNNMSMANNVPPPMQPPPIESSNLKYPRIYPPPHSLLQYHLYAPEQPSSLKSLLKPNERSADQLFIPNNIREDLTKKNLSILQVFPSSGKVIPSIVQDYFNLVPLNFNNNDFLNKTTLFKVFSNYDGKAYVLKRLPNIDKSMNPNKISKIYQIWSKINCTNLIKFRDIFQTTKFGDLSICLVFDYYPNSLSLYDYHFVNFPKFPITNNYLWIYLVQLTNVINSIHSQNLSIGNTLNWRKVLITGDPGRIKLSHCNFMDLLFNDDTDTVVSSGGSTIEGQQQLDYKYLGELLFNLSINIENSNNNTAPKEYRLEEITPQSIDDMRQIDDKFKDVLKYLISDNGDSKKSIHDLTSHFYDKMFMVLESSQTYTEYMESVLSRELENGRLFRLVNKLNCIFGRIESRIDINWSESGTKFPIILFYDYVFHQVDSNGKPIMDLTHVLRCLNKLDAGIQEKLMLVTPDELNCIIISYKELKDLIESTFRSITQ
notes: Pan3, Saccharomyces cerevisiae; Two copies stand in the scPan2–Pan3 heterotrimer by nanoESI-MS
In the case of B9, the “stoichiometry N” value [7] is reported as 2 scPan3 per scPan2 and the binding result [8] is reported as “binds”.
